Laboratory results as given in patent US20180179500.

Molecular target: MspA-((Del-L74/G75/D118/L119)D56F/E59R/L88N/D90N/D91N/Q126R/D134R/E139K)8

B1: T4 Dda-F98W/E94C/C109A/C136A/K194L/A360C (protein)
chain: GTFDDLTEGQKNAFNIVMKAIKEKKHHVTINGPAGTGKTTLTKFIIEALISTGETGIILAAPTHAAKKILSKLSGKEASTIHSILKINPVTYECNVLWEQKEVPDLAKARVLICDEVSMYDRKLFKILLSTIPPWATIIGIGDNKQIRPVDPGENTAYISPFFTHKDFYQCELTEVKRSNAPIIDVATDVRNGLWIYDKVVDGHGVRGFTGDTALRDFMVNYFSIVKSLDDLFENRVMAFTNKSVDKLNSIIRKKIFETDKDFIVGEIIVMQEPLFKTYKIDGKPVSEIIFNNGQLVRIIEAEYTSTFVKARGVPGEYLIRHWDLTVETYGDDEYYREKIKIISSDEELYKFNLFLGKTCETYKNWNKGGKAPWSDFWDAKSQFSKVKALPASTFHKAQGMSVDRAFIYTPCIHYADVELAQQLLYVGVTRGRYDVFYV
Q: How did the % complement bases missed through slipping turn out when B1 was run?
A: The % complement bases missed through slipping was 1.9%.

Q: And the Average slip length?
A: Its Average slip length is 23.3.

Q: What about the Number complement slips per 3.6 kb (slips per 3.6 kb) of the same protein?
A: The Number complement slips per 3.6 kb (slips per 3.6 kb) was 3.

Q: And the Number complement slips per kb?
A: The Number complement slips per kb was 0.8 slips per kb.

Q: And the Total length of complement slips?
A: Its Total length of complement slips is 70.

B2: T4 Dda-E94C/F98W/C109A/C136A/K199L/A360C (protein)
chain: GTFDDLTEGQKNAFNIVMKAIKEKKHHVTINGPAGTGKTTLTKFIIEALISTGETGIILAAPTHAAKKILSKLSGKEASTIHSILKINPVTYECNVLWEQKEVPDLAKARVLICDEVSMYDRKLFKILLSTIPPWATIIGIGDNKQIRPVDPGENTAYISPFFTHKDFYQCELTEVKRSNAPIIDVATDVRNGKWIYDLVVDGHGVRGFTGDTALRDFMVNYFSIVKSLDDLFENRVMAFTNKSVDKLNSIIRKKIFETDKDFIVGEIIVMQEPLFKTYKIDGKPVSEIIFNNGQLVRIIEAEYTSTFVKARGVPGEYLIRHWDLTVETYGDDEYYREKIKIISSDEELYKFNLFLGKTCETYKNWNKGGKAPWSDFWDAKSQFSKVKALPASTFHKAQGMSVDRAFIYTPCIHYADVELAQQLLYVGVTRGRYDVFYV
Q: For B2, which % complement bases missed through slipping is on record?
A: Its % complement bases missed through slipping is 3.6%.

Q: What about the Average slip length of the same protein?
A: Its Average slip length is 21.5.

Q: And the Number complement slips per 3.6 kb (slips per 3.6 kb)?
A: Its Number complement slips per 3.6 kb (slips per 3.6 kb) is 6.

Q: And the Number complement slips per kb?
A: Its Number complement slips per kb is 1.7 slips per kb.

Q: What about the Total length of complement slips of the same protein?
A: The Total length of complement slips was 129.
